Columns and labels:
Test in all cases: Crosslinking/co-immunoprecipitation/mass spectrometry (TMT quantitative proteomics) to identify irisin receptors
Format in all cases: binding
[1] = target: T1, MLO-Y4 cell surface proteins (Mus musculus, UniProt P09671); settings: co-precipitated protein Sod2 (SODM_MOUSE)
T1 construct: endogenous in cells; host or cells: MLO-Y4
T1 sequence (P09671 25-222): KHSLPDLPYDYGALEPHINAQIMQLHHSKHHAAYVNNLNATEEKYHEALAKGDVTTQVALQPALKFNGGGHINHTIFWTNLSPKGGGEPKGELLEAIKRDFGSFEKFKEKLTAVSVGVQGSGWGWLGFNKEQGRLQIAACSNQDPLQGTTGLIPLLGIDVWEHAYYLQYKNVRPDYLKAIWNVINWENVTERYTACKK
Procedure: (§1) MLO-Y4 cells were seeded on 30×150 mm type-I collagen coated dishes as described in cell culture experiment. At 60% cell density, medium was switched to FreeStyle™ 293 Expression medium. After 4 hours incubation, the cells were chilled on ice for 10 minutes, followed by treatment of 10 nM his-tag irisin or his-tag adipsin for 20 minutes. The cells were then incubated with 1.5 mM DTSSP for 30 minutes on ice to do cross-linking, after washing with 15 ml cold PBS twice. The cross-linking was quenched by addition of a final concentration of 20 mM Tris-pH 7.5. The cells were then harvested and homogenized in 1 ml RIPA buffer containing proteaseinhibitor cocktailand phosphatase-inhibitor cocktail. Whole-cell lysates were homogenized by 10 times passages through a 22G needle fitted to a 3 ml syringe. Homogenized samples were rotated gently in cold room for 20 minutes followed by 15,000×g centrifugation for 10 minutes. After addition of a final concentration of 10 mM imidazole, supernatants were incubated with 100 μl Ni-NTA agarose for 1 hour. After centrifugation at 500×g for 1 minute, the supernatants were aspirated and 1 ml cold RIPA buffer containing 10 mM imidazole were added to the agarose. After 10 minutes rotation in cold room, the supernatants were aspirated and 1 ml cold RIPA buffer containing 30 mM imidazole were added to the agarose. After repeating the washing 3 times, 0.8 ml RIPA buffer containing 250 mM imidazole was added and the agarose was gently rotated in a cold room for 20 minutes. After centrifugation at 1000×g for 2 minutes, the supernatants were transferred to 1.5 ml tube and incubated with 100 μl 0.2% sodium deoxycholate and 100 μl 10% trichloroacetic acid in ice for 1 hour. After centrifugation at 12,000×g for 10 minutes at 4° C., the supernatants were removed and 1 ml cold acetone was added to the pellets followed by vortexing for 10 seconds. After one more washing with cold acetone, the pellets were dried at 37° C., and 39 μl PBS and 13 μl 4×NuPAGE LDS were added to the pellets with a final concentration of 5 mM DTT. Solubilized proteins were incubated at 65° C. for 20 minutes followed by incubation with a final concentration of 14 mM iodoacetamide for 45 minutes in the dark. 38 μl samples were loaded to 4-12% gradient SDS-PAGE for separation followed by Coomassie Blue staining. The gels were submitted to quantitative proteomics.
(§2) For in-gel digestions, gels were stained with Coomassie Blue and were excised into 8 equal segments for control and irisin lanes. Gel pieces were destained and dehydrated with 100% acetonitrile, vacuumed dried, and digested in 25 mM HEPES (pH 8.5) with 500 ng sequencing grade trypsin (Promega) and incubated for an overnight at 37° C. (Shevchenko et al. (1996) Anal. Chem. 68:850-858). Digests were treated with 1% formic acid and purified using C18 Stage-Tips as previously described (Rappsilber et al. (2007) Nat. Protoc. 2:1896-1906). Peptides were eluted with 70% acetonitrile and 1% formic acid, then dried using a speedvac. Isobaric labeling of digested peptides was accomplished using 6-plex tandem mass tag (TMT) reagents (Thermo Fisher Scientific, Rockford, Ill.). Reagents, 5.0 mg, were dissolved in 252 μl acetonitrile (ACN) and 5 μl of the solution was added to the digested peptides dissolved in 25 μl of 200 mM HEPES, pH 8.5. After 1 hour at room temperature, the reaction was quenched by adding 1 μl of 5% hydroxylamine. Labeled peptides were combined and acidified prior to C18 Stage-Tips desalting.
(§3) All LC-MS/MS experiments were performed on an Orbitrap Fusion™ Lumos mass spectrometer (Thermo Fisher Scientific, San Jose, Calif., USA) coupled with a Proxeon EASY-nLC™ 1200 LC pump (Thermo Fisher Scientific). Peptides were separated on a 100 μm inner diameter microcapillary column packed with 35 cm of Accucore™ C18 resin (1.8 μm, 100 Å, Thermo Fisher Scientific). […]

[2] = target: T2, MLO-Y4 cell surface proteins (Mus musculus, UniProt P97360); settings: co-precipitated protein Etv6 (ETV6_MOUSE)
T2 construct: endogenous in cells; host or cells: MLO-Y4
T2 sequence (P97360 1-485): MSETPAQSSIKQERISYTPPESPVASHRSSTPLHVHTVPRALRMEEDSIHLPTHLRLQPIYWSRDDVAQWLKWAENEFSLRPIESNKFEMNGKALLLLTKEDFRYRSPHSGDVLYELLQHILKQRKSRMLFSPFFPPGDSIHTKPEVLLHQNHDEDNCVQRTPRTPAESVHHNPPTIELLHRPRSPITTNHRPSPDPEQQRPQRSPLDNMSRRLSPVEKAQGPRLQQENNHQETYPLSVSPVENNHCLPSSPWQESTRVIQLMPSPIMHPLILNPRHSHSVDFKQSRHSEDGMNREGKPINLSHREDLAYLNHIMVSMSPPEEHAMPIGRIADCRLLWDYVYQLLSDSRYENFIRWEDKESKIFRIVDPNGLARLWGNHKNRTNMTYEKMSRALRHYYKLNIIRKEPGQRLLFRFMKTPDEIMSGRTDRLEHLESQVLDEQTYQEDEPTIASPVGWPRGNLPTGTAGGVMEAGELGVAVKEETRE
Procedure: as §1, §2, §3

[3] = target: T3, MLO-Y4 cell surface proteins (Mus musculus, UniProt Q791V5); settings: co-precipitated protein Mteh2 (MTCH2_MOUSE)
T3 construct: endogenous in cells; host or cells: MLO-Y4
T3 sequence (Q791V5 1-303): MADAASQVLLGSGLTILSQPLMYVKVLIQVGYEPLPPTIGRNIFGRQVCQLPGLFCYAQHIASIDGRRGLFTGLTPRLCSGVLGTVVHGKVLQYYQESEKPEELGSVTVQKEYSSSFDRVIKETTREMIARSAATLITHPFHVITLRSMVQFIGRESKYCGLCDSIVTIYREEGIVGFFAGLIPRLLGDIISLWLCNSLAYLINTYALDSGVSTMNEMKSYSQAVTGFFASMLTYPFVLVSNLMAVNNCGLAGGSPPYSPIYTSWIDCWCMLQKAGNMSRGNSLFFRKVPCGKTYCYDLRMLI
Procedure: as §1, §2, §3

adipsin
TMT signal-to-noise ratio [1]: 1031.93 | TMT signal-to-noise ratio [2]: 137.108 | TMT signal-to-noise ratio [3]: 101.527
